{"source": "paper PMC9503767", "about": "“Site-Differentiated Iron–Sulfur Cluster Ligation Affects Flavin-Based Electron Bifurcation Activity” (Metabolites, 2022)", "substrate": "NC(=O)C1=CN([C@@H]2O[C@H](COP(=O)(O)OP(=O)(O)OC[C@H]3O[C@@H](n4cnc5c(N)ncnc54)[C@H](OP(=O)(O)O)[C@@H]3O)[C@@H](O)[C@H]2O)C=CC1", "test": "purified protein", "type": "biochemical, Pyrococcus furiosus", "conditions": "FAD; two [4Fe-4S] clusters oxidized by L-FAD"}
{"protein": "NfnL (large subunit of NADH-dependent reduced-ferredoxin: NADP+ oxidoreductase NfnSL) (Pyrococcus furiosus DSM 3638) (protein, isolated NfnL-WT subunit) MPRLIKDRVPTPERSVGERVRDFGEVNLGYSWELALREAERCLQCPVEYAPCIKGCPVHINIPGFIKALRENRDNPSKAVREALRIIWRDNTLPAITGRVCPQEEQCEGACVVGKVGDPINIGKLERFVADYAREHGIDDELLLEEIKGIKRNGKKVAIIGAGPAGLTCAADLAKMGYEVTIYEALHQPGGVLIYGIPEFRLPKEIVKKELENLRRLGVKIETNVLVGKTITFEELREEYDAIFIGTGAGTPRIYPWPGVNLNGIYSANEFLTRINLMKAYKFPEYDTPIKVGKRVAVIGGGNTAMDAARSALRLGAEVWILYRRTRKEMTAREEEIKHAEEEGVKFMFLVTPKRFIGDENGNLKAIELEKMKLGEPDESGRRRPIPTGETFIMEFDTAIIAIGQTPNKTFLETVPGLKVDEWGRIVVDENLMTSIPGVFAGGDAIRGEATVILAMGDGRKAAKAIHQYLSKEK", "values": [{"measurement": "Km", "result": "1300 ± 100", "unit": "µM"}, {"measurement": "Vmax", "result": 3000, "unit": "µM/min"}, {"measurement": "kcat", "result": "2.3 ± 0.3", "unit": "s⁻¹"}, {"measurement": "kcat/Km", "result": "1700 ± 300", "unit": "M⁻¹ s⁻¹"}]}
